Consider one protein from FireProtDB.

For this data set the following is noted: Capra hircus; pH 7; 25 °C; GdnHCl; CD; sodium cacodylate 50 mM; NaCl 50 mM; reversible: yes; whole UniProt chain shown.

B1: Alpha-lactalbumin wild type, P00712 (protein)
chain: MMSFVSLLLVGILFHATQAEQLTKCEVFQKLKDLKDYGGVSLPEWVCTAFHTSGYDTQAIVQNNDSTEYGLFQINNKIWCKDDQNPHSRNICNISCDKFLDDDLTDDIVCAKKILDKVGINYWLAHKALCSEKLDQWLCEKL
For B1, the denaturant m value came out at 2.2 kcal/mol/M, the “denaturant midpoint (higher = more stable)” value worked out at 2.6 M and the unfolding free energy stood at 5.7 kcal/mol.
